From article PMC5940202, “A novel α-galactosidase from the thermophilic probiotic Bacillus coagulans with remarkable protease-resistance and high hydrolytic activity” (PLoS ONE, 2018) come the findings set out here.

One data set has as its target T1, Aga-BC7050 (Heyndrickxia coagulans, UniProt A0A8B4BWV9).
T1 construct: GH36 homodimer, 168 kDa by gel filtration; predicted nucleophile Asp477, acid/base Asp547
T1 sequence (A0A8B4BWV9 1-730): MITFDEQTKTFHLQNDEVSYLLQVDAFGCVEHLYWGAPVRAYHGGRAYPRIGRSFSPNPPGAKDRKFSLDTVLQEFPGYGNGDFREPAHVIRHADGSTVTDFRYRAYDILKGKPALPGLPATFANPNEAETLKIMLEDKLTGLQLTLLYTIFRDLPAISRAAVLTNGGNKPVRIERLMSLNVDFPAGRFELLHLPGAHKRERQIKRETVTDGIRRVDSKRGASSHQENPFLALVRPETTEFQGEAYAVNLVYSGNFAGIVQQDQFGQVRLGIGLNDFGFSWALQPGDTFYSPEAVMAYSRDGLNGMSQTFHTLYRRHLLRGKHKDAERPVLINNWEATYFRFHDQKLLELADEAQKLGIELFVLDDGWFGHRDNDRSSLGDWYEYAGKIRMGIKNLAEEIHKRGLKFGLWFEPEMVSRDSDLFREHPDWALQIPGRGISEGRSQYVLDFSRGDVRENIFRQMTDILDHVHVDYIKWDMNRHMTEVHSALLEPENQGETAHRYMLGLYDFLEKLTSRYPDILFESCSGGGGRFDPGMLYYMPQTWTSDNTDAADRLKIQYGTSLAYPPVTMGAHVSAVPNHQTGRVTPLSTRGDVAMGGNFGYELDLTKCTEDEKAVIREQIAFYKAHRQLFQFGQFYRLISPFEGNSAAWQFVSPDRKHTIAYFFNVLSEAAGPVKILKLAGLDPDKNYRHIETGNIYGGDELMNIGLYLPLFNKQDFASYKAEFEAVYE
As to the kind of experiment: pNPGal hydrolysis with added sugar. Format: biochemical. Conditions: substrate pNPGal; McIlvaine buffer; galactose is also the reaction product.

Data set [1] addresses α-galactosidase Aga-BC7050 from Bacillus coagulans ATCC 7050 (Bacillus coagulans ATCC 7050). As to the kind of experiment: SEC; analytical gel filtration, Superdex 200 Increase 10/300 GL, 10 mM phosphate buffer, 0.14 M NaCl, pH 7.4, 0.75 mL/min, room temperature; calibrated with albumin, lactate dehydrogenase, catalase, ferritin, thyroglobulin; native mass compared with SDS-PAGE mass. In general terms: SEC sorts molecules by how far they enter the pores of the column.

Substrate in data set [2]: O=[N+]([O-])c1ccc(O[C@H]2O[C@H](CO)[C@H](O)[C@H](O)[C@H]2O)cc1
The data set is described as follows: purified protein. Conditions: McIlvaine buffer pH 6.0, 55 °C. In kind it is biochemical, Heyndrickxia coagulans.

Substrate in data set [3]: OC[C@H]1O[C@H](OC[C@H]2O[C@H](O[C@]3(CO)O[C@H](CO)[C@@H](O)[C@@H]3O)[C@H](O)[C@@H](O)[C@@H]2O)[C@H](O)[C@@H](O)[C@H]1O
As to the kind of experiment: purified protein. Format: biochemical, Heyndrickxia coagulans. Conditions: McIlvaine buffer pH 6.0, 55 °C.

Regarding `OC[C@H]1OC(O)[C@H](O)[C@@H](O)[C@H]1O` (stereo partly shown) [galactose], the “% decrease of activity at 100 mM” value at Aga-BC7050 is 24.4%.
Broadly, the stoichiometry N is the number of molecules, sites or subunits per partner or assembly. For “α-galactosidase Aga-BC7050 from Bacillus coagulans ATCC 7050 (enzyme)”, the stoichiometry N in data set [1] was 2.

B1: Aga-BC7050 (Heyndrickxia coagulans DSM 1 = ATCC 7050) (protein)
chain: MITFDEQTKTFHLQNDEVSYLLQVDAFGCVEHLYWGAPVRAYHGGRAYPRIGRSFSPNPPGAKDRKFSLDTVLQEFPGYGNGDFREPAHVIRHADGSTVTDFRYRAYDILKGKPALPGLPATFANPNEAETLKIMLEDKLTGLQLTLLYTIFRDLPAISRAAVLTNGGNKPVRIERLMSLNVDFPAGRFELLHLPGAHKRERQIKRETVTDGIRRVDSKRGASSHQENPFLALVRPETTEFQGEAYAVNLVYSGNFAGIVQQDQFGQVRLGIGLNDFGFSWALQPGDTFYSPEAVMAYSRDGLNGMSQTFHTLYRRHLLRGKHKDAERPVLINNWEATYFRFHDQKLLELADEAQKLGIELFVLDDGWFGHRDNDRSSLGDWYEYAGKIRMGIKNLAEEIHKRGLKFGLWFEPEMVSRDSDLFREHPDWALQIPGRGISEGRSQYVLDFSRGDVRENIFRQMTDILDHVHVDYIKWDMNRHMTEVHSALLEPENQGETAHRYMLGLYDFLEKLTSRYPDILFESCSGGGGRFDPGMLYYMPQTWTSDNTDAADRLKIQYGTSLAYPPVTMGAHVSAVPNHQTGRVTPLSTRGDVAMGGNFGYELDLTKCTEDEKAVIREQIAFYKAHRQLFQFGQFYRLISPFEGNSAAWQFVSPDRKHTIAYFFNVLSEAAGPVKILKLAGLDPDKNYRHIETGNIYGGDELMNIGLYLPLFNKQDFASYKAEFEAVYE
notes: GH36 homodimer, 168 kDa by gel filtration; predicted nucleophile Asp477, acid/base Asp547
By Km is commonly meant the substrate concentration at which the rate is half of its maximum. One may read the Vmax as the rate approached at saturating substrate. Broadly, the kcat is the number of substrate molecules converted per active site and unit of time at saturation. By kcat/Km is commonly meant the second-order rate constant that governs catalysis at low substrate concentration. Regarding B1, in the data set “purified protein [2]”, the Michaelis constant (Km) turned out to be 1.1 ± 0.2 mM, the Vmax turned out to be 655 µmol/min/mg, the catalytic constant (kcat) stood at 942 ± 73.9 s⁻¹ and the kcat/Km was 844000 M⁻¹ s⁻¹. In the data set “purified protein [3]”, the Km is 53.7 ± 0.9 mM, the maximum rate (Vmax) is 1140 µmol/min/mg, the catalytic constant (kcat) was 1610 ± 53.4 s⁻¹ and the kcat/Km was determined as 30500 M⁻¹ s⁻¹.
